Key:
[1] = biological target: FcγRIIIa (CD16) on Natural Killer (NK) cells (UniProt P08637); test: FACS on NK cells (CD56+) in PBMCs, antibody 20 µg/ml, FITC anti-human IgG (Fc) detection
[2] = biological target: Positive Control (Table 3); test: SPR solution competition: soluble CD16a (0-1000 nM) inhibits binding of 10 nM analyte to immobilized His-CD16a
[3] = biological target: afucosylated anti-CCR5 antibody (afucosylated Ab); test: SPR solution competition: soluble CD16a (0-1000 nM) inhibits binding of 10 nM antibody to immobilized His-CD16a
[4] = biological target: wildtype anti-CCR5 antibody (WT Ab, 8% afucosylated); test: as above

UniProt P08637, sequence (P08637 17-254 limits assumed): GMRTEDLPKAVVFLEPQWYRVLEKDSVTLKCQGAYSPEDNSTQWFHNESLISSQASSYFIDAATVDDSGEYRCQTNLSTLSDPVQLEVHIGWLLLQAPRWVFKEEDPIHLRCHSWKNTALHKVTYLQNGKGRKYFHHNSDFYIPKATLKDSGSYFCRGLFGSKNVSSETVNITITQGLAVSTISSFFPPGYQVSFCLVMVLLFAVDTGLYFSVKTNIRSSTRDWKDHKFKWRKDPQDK

IC50 [2] | IC50 [3] | IC50 [4] | Substance | Bmax compared to 100% Bmax for human IgG1 [1]
 |  |  | human IgG4 (The Binding Site) (antibody) | < 30%
10 nM | 9 nM | 14 nM | soluble CD16a (from UniProt P08637 17-208) (receptor) | 

From patent US20090226434A1
